Results reported in the supplement of paper PMC9170038.

Test system: MS2 coat protein
Assay: apparent KD of MS2 coat protein; designed switch direction (-1 OFF switch, 1 ON switch): -1; higher = weaker reporter binding
Procedure, shortened: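 Designed RNA switches sharing common flanks were transcribed on Illumina chips by stalled E. coli RNA polymerase. They were titrated with SNAP-549-labelled MS2 coat protein, from 0.7 or 1.5 nM doubling to 3 µM, in Tris-HCl pH 7.5 buffer with KCl, MgCl2, BSA, DTT, tRNA and Tween-20. Titrations ran without input, with 200 uM small-molecule ligand, or with an oligonucleotide input. The apparent KD of each design is the median over its clusters, after curve-fitting of normalised cluster fluorescence.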

[1] = input ligand: microRNA oligo, concentration not stated
[2] = Eterna round: R95, input ligand: FMN 200 uM
[3] = Eterna round: R95, input ligand: microRNA oligo, concentration not stated
[4] = Eterna round: R95, input ligand: none

Row | Sequence | apparent KD of MS2 coat protein (input ligand: FMN 200 uM) [nM] | apparent KD of MS2 coat protein (input ligand: none) [nM] | apparent KD of MS2 coat protein [3] [nM] | other results
1 | GUAAUUAAUGUAGGAUAUGCAAGGCGAACCUAAGCAGAAGGACAUGUGGAUCACCCAUGACAUGAGGAUCACCCAUGUAUCGCU [salish99_ExNG1_r4_005] (Eterna round: R96, puzzle: Exclusion NG 1) | 109 | 212 |  | apparent KD of MS2 coat protein [1]: 122 nM
2 | GGCAUGUGAGGAUAUGUACCUGAGUGCUUUGCGCUCAGGAAACAGAAGGCACAUGAGGAUCACCCAUGUGAUAA [jl-ex4-4.49 ViennaUCT mod] (Eterna round: R97, puzzle: Exclusion 4) | 67.7 | 710 |  | 
3 | AGAAAUGCCCGUGACCACAAGCUUUUUGCUUGUCUUACUACAUGAGGAUCACCCAUGUAACAUGGGCUCCUGACAAU [Maleisar] (puzzle: Sensor v3, turn-off variant 2) |  |  | 9.6 | apparent KD of MS2 coat protein [2]: 14.7 nM; apparent KD of MS2 coat protein [4]: 12.5 nM
4 | UUAUUAAAUGUAGGAUAUGCAUAUUAUUAUUAUGCAGAAGGACAUGAGGAUCACCCAUGUAUAUUAUUAUUAUAUAUUAUAUAU [Title] (Eterna round: R96, puzzle: Exclusion NG 1) |  |  |  | apparent KD of MS2 coat protein [1]: 26.5 nM
5 | AGGUGUAGAGGAUAUCUAUCCUCCCACAUGAGGAUCACCCAUGUCCUGGUCACCAAGGACGGAGAAGGCUACACCA [Omei Ex5 D19] (Eterna round: R97, puzzle: Exclusion 5) | 153 | 292 |  | 
6 | UUUUUAUUUGAAGGAUAUACUUAACAUGAGGAUCACCCAUGUGGUGUUGUGAGUGAGUGAGUUUAGUAGAAGGUCAAUUCUUUU [JMF's solution 85] (Eterna round: R96, puzzle: Exclusion NG 2) |  |  |  | apparent KD of MS2 coat protein [1]: 391 nM
7 | CUCCUCGCUUAGGAUAUGUACACUUGCACCGUGACAGAAGGAAGCACUUGAGGAUCACCCAAGUGCCAGGGUGC [Geena] (Eterna round: R97, puzzle: Exclusion 6) | 14.4 | 16.7 |  | 
8 | CGCAUGUAAGGAUAUUAGUAGUAGUCAGAAUAGACUAUUACUGAGAAGGUACAUGAGGAUCACCCAUGUCAGCG [Eli x4 4.17] (Eterna round: R97, puzzle: Exclusion 4) | 361 | 56.4 |  | 
9 | UUUAAAACAUAGGAUAUCGAAAAUAUCAUUUAACGAGAAGGAUGAACAUGAGGAUCACCCAUGUGGUAUCAUGG [Mat - Exclusion 6 - JL Mod - D16] (puzzle: Exclusion 6) |  |  | 580 | apparent KD of MS2 coat protein [2]: 320 nM; apparent KD of MS2 coat protein [4]: 313 nM
10 | GGGAAACAUGAGGAUCACCCAUGUGAGGAUAUGAAAAAGAAAAGAAAAGAAAGAAGAAUCAGAAGGCACAAAGG [salish99-ex1_r3_079] (puzzle: Exclusion 1) |  |  | 36.1 | apparent KD of MS2 coat protein [2]: 75.5 nM; apparent KD of MS2 coat protein [4]: 54.9 nM
11 | CAAGCUUUGCGAGGAUAUGAUGGCCGAUAUGCCUCAGAAGGCGCAGAAACUUGAGGAUCACCCAAGUGAUGCAACGACGACCAU [Mutated MS2 EX1.12] (Eterna round: R96, puzzle: Exclusion NG 1) | 27.1 | 15.7 |  | apparent KD of MS2 coat protein [1]: 10.7 nM
12 | UUGUAACAUGAGGAUCACCCAUGUGAGGAUAUGGCCCGCCCGGCGUGAGCUGGUUUUGUCAGAAGGCGCAUAGG [salish99_ex1_r4_022] (Eterna round: R97, puzzle: Exclusion 1) | 158 | 49.9 |  | 
13 | GUAGAGUCAGGAUAUACAAGAUCGAAAGAUCGAAGAUCCAUACAUGAGGAUCACCCAUGUAGAAGGGACUCUAC [ChP 11-04-2015 #3] (puzzle: Exclusion 2) |  |  | 16.9 | 
14 | UUUAAUUUUUUUUUUUUACAAGCUUUUUGCUCGUCUUAUACAUGAGGAUCACCCAUGUGGGUGGAGGGUAAAUUAUC [JMF 89] (puzzle: Sensor v3, turn-off variant 2) |  |  | 63.6 | apparent KD of MS2 coat protein [2]: 35.9 nM; apparent KD of MS2 coat protein [4]: 67 nM
15 | AUGGGUCGGGAGGAUAUUCGGGCUCAUGGGCUUGGAGAAGGCUCGACAUGAGGAUCACCCAUGUAAGUGUUCUU [-25, -23.1 kcal, A 22%] (Eterna round: R97, puzzle: Exclusion 6) | 550 | 32.2 |  | 
16 | CACAGGAGACGGAGAUCCAACAUGAGGAUCACCCAUGUCUCAAAAGCUUUUUGCUUGUCUUAUCCUCCUCUCUUGAC [Mat - Sensor, turn-off var - Eli Mod - D60] (Eterna round: R97, puzzle: Sensor, turn-off variant 1) | 26 | 28.1 |  | 
17 | UUCCAACGAGGAUAUCGAUGGUGGAACAUGAGGAUCACCCAUGUAUGAGAUAUUGUAGUUCGAGAAGGCGUUCAGU [JR_E5_Sub056] (puzzle: Exclusion 5) |  |  | 31.5 | 
18 | CUUUUGUGAGGAUAUCAGUAGUAUAAAAUAAAAUAUACUACUGAGAAGGCACAUGAGGAUCACCCAUGUUCCUC [Mat - Exclusion 4 - Mod of Salish - D71] (puzzle: Exclusion 4) |  |  | 38.5 | 

Row | Sequence | apparent KD of MS2 coat protein (input ligand: FMN 200 uM) [nM] | apparent KD of MS2 coat protein (input ligand: none) [nM] | apparent KD of MS2 coat protein [3] [nM] | other results
19 | CCGGAUUAGGAGGAUAUAGGAGUCGAUAGACACCUAGAAGGCCUGACAUGAGGAUCACCCAUGUGUCCUACCGG [Mod of Eli 17 - Jieux - Exclusion 6] (Eterna round: R97, puzzle: Exclusion 6) | 48.6 | 22.9 |  | 
20 | AGAUAGUGGUGAGGAUAUCAGAAUAGAAAGAAAUGAGAAGGCACACAUGAGGAUCACCCAUGUGAGUUCUUGAGAUUACAUGGU [Prohibition 41 - Jieux - Exclusion NG 1] (Eterna round: R96, puzzle: Exclusion NG 1) |  |  |  | apparent KD of MS2 coat protein [1]: 14.4 nM
21 | AAAUAAUGAGGAUAUACAGUGUAAAACAUGAGGAUCACCCAUGUUCUUCAAUUAGUAUUUGUAGAAGGCAUAGGUA [JR_Ex5_Sub094] (Eterna round: R97, puzzle: Exclusion 5) | 38.5 | 60.7 |  | 
22 | CCUCUACAUGAGGAUCACCCAUGUGAGGAUAUCAGUGCAAAAGGCACGUAAUAAAUCGUGAGAAGGCACAUGGG [EX1 A.15] (Eterna round: R97, puzzle: Exclusion 1) | 24 | 112 |  | 
23 | GAACCAUGAGGAUAUUCUGAUCCUUACAUGAGGAUCACCCAUGUGAGUACAAAAGUACUCGAAGAAGGCAUGGUUC [Omei Ex5 B1] (Eterna round: R97, puzzle: Exclusion 5) | 616 | 2130 |  | 
24 | AAGUACCGUCACGAUAGUGAUGGUACAACAAGUAGUGAAACAUGAGGAUCACCCAUGUCCUCAGUUGCUCGUCUUAU [Sensor 3 - 86] (puzzle: Sensor v3, turn-off variant 2) |  |  | 269 | apparent KD of MS2 coat protein [2]: 283 nM; apparent KD of MS2 coat protein [4]: 298 nM
25 | AAAGAACAUGAGGAUCACCCAUGUGAGGAUAUGCGAAAACCGCUGGCGCACCAGACGGGCAGAAGGCAUAUGGU [Aonustiri] (puzzle: Exclusion 1) |  |  | 48.9 | 
26 | CCAGUGUGCUUCAGGACAUGAGGAUCACCCAUGUUCGCAAAAUAGGAUAUUGGGUGUAGGCCGCGCAAGAAGGGUUAUGCGAAC [Disobeus] (Eterna round: R96, puzzle: Exclusion NG 3) | 117 | 83.4 |  | apparent KD of MS2 coat protein [1]: 79.8 nM
27 | ACAAUGUUAGGAUAUCUGACAAUUAGUCUCGACUAGUCGAAAGAGAAGGAACAUGAGGAUCACCCAUGUAGAUC [EX4 #73] (Eterna round: R97, puzzle: Exclusion 4) | 144 | 37.4 |  | 
28 | UUUAAUUUAAUUAAGAUCACAUGAGGAUCACCCAUGUAAUUAUAGGAUAUCAGCUCGUUUAGAGCUGAGAAGGAUAAUUACAUA [ExNG3/5-A2] (Eterna round: R96, puzzle: Exclusion NG 3) |  |  |  | apparent KD of MS2 coat protein [1]: 23.8 nM
29 | CAGAACUGAGGAUAUACAUGAGGAUCACCCAUGUGUUCCAGCUAGGAGACUAGCAUAUGUAGAAGGCAGUUCUG [Mat - Exclusion 3 - JL Mod - D11] (Eterna round: R97, puzzle: Exclusion 3) | 587 | 359 |  | 
30 | GAAAAGGUAGGAUAUACGAUAAUAAAGGGUAGAUAAUAAACACAUGAGGAUCACCCAUGUAGAAGGACCAAAAG [salish99_ex2_r3_103] (puzzle: Exclusion 2) |  |  | 35 | apparent KD of MS2 coat protein [2]: 127 nM; apparent KD of MS2 coat protein [4]: 35.2 nM
31 | CAUACACAUGAGGAUCACCCAUGUGAGGAUAUGCGUACGUUGUCCGUAGGCGACGUGCGCAGAAGGCGCGUGUU [JL-ex1-3.15 Eli mod] (puzzle: Exclusion 1) |  |  | 42.5 | 
32 | GACCGGACGUGGUCUGGUAACAUGAGGAUCACCCAUGUAGGUCUAAGAACAUGCCUUUUGCACGCUCGUCUUAUAUA [JR_SV3TOV1_Sub063] (puzzle: Sensor v3, turn-off variant 1) |  |  | 38.2 | apparent KD of MS2 coat protein [2]: 54.7 nM; apparent KD of MS2 coat protein [4]: 63.8 nM
33 | GCGCACCUACCAAAAGGUAGGUCAACAUGAGGAUCACCCAUGUAGGAUAUCGAUUGCUUUGCAGUCGAGAAGGGCAUGAUGCGC [JL ENG3 3.80 Mod 14] (Eterna round: R96, puzzle: Exclusion NG 3) | 59.1 | 44.2 |  | apparent KD of MS2 coat protein [1]: 36.6 nM
34 | GAGUGCUGAGGAUAUACAUGAGGAUCACCCAUGUGCUUCAGCUAGGAGACUAGCAUUGGUAGAAGGUAGUACUC [Mod of lroppy 4 - Jieux - Exclusion 3] (Eterna round: R97, puzzle: Exclusion 3) | 19.9 | 13.2 |  | 
35 | GGUUAUUCUGUAUGGGUACACAUGAGGAUCACCCAUGUACAGAGGUCUACCCUAAUAUAGCAAGCUGGCCCGUCCUA [Eternabot (L1) Solution 24] (Eterna round: R97, puzzle: Sensor, turn-off variant 1) | 148 | 132 |  | 
